Reference: IntAct's records for PubMed 10764785

Target: rpod_ecoli rpoD (UniProt P00579)
Sequence (P00579 whole entry): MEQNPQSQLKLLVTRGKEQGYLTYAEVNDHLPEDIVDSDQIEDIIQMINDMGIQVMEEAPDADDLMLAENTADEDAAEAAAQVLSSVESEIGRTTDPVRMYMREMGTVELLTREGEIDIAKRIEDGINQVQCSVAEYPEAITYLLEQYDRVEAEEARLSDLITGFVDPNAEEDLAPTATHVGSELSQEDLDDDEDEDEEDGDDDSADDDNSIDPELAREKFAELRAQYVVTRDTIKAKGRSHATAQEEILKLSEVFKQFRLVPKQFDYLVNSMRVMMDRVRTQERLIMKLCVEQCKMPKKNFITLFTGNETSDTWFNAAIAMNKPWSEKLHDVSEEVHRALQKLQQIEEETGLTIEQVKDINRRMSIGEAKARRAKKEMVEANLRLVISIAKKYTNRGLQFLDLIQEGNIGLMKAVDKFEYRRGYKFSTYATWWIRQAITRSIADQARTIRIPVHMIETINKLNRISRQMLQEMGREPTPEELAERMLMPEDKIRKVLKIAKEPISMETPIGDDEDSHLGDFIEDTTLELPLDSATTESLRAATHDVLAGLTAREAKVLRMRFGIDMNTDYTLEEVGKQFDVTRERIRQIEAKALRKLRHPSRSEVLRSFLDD

Row | effect of a mutation on the interaction | Substance
1 | decreasing interaction | DNA-directed RNA polymerase subunit beta' (Escherichia coli (strain K12)) (from UniProt P0A8T7) R275Q
2 | decreasing interaction | DNA-directed RNA polymerase subunit beta' (Escherichia coli (strain K12)) (from UniProt P0A8T7) A302D
3 | decreasing interaction | DNA-directed RNA polymerase subunit beta' (Escherichia coli (strain K12)) (from UniProt P0A8T7) R297S
4 | increasing interaction | DNA-directed RNA polymerase subunit beta' (Escherichia coli (strain K12)) (from UniProt P0A8T7) Q300E
5 | increasing interaction | DNA-directed RNA polymerase subunit beta' (Escherichia coli (strain K12)) (from UniProt P0A8T7) N309D
6 | decreasing interaction | DNA-directed RNA polymerase subunit beta' (Escherichia coli (strain K12)) (from UniProt P0A8T7) R293Q
7 | decreasing interaction | DNA-directed RNA polymerase subunit beta' (Escherichia coli (strain K12)) (from UniProt P0A8T7) E295K
